Assay in all cases: EMSA
Background: Mobility shift assays separate free from complexed probe on a gel.

Data set [1] concerns the target T1, ComA (Bacillus subtilis (W168?)) (UniProt P14204).
T1 sequence: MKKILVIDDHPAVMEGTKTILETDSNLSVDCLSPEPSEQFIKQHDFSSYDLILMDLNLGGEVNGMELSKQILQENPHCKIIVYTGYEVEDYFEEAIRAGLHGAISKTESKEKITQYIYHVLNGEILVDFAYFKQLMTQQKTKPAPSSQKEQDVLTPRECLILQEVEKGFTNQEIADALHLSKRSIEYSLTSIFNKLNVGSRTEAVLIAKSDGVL
The following applies: EMSA: 10 mM HEPES pH 7.6, 2 mM MgCl2, 0.1 mM EDTA, 200 mM KCl, 5 mM DTT, 10% glycerol, 10 ng DNA in 15 ul, 20 min, room temperature.

Data set [2] deals with T2, ComA;RNA polymerase alpha subunit (Bacillus subtilis (W168?);Bacillus subtilis) (UniProt P14204+P20429).
T2 sequence 1: T1 sequence
T2 sequence 2: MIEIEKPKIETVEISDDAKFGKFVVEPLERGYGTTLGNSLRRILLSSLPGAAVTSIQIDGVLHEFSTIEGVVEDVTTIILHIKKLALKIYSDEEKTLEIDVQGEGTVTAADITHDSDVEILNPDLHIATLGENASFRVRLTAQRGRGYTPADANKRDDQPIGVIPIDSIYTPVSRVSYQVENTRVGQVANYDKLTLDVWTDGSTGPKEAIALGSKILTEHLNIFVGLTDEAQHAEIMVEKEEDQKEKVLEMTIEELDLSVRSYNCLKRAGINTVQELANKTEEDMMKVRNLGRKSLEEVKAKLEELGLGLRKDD
The note with it: EMSA: 10 mM HEPES pH 7.6, 2 mM MgCl2, 0.1 mM EDTA, 200 mM KCl, 5 mM DTT, 10% glycerol; 10 ng DNA in 15 ul, 20 min, room temperature.

For data set [3], the target named is ComA;sigma factor sigmaA (Bacillus subtilis (W168?);Bacillus subtilis) (UniProt P14204+P06224). The note with it: EMSA: 10 mM HEPES pH 7.6, 2 mM MgCl2, 0.1 mM EDTA, 200 mM KCl, 5 mM DTT, 10% glycerol; 10 ng DNA in 15 ul, 20 min, room temperature.

This passage reports binding, binding signal (fold reduced affinity) and Kd results from publication PMC4797271.

ComA;sigma factor sigmaA (Bacillus subtilis (W168?);Bacillus subtilis), sequence (P06224 whole entry, one chain of several): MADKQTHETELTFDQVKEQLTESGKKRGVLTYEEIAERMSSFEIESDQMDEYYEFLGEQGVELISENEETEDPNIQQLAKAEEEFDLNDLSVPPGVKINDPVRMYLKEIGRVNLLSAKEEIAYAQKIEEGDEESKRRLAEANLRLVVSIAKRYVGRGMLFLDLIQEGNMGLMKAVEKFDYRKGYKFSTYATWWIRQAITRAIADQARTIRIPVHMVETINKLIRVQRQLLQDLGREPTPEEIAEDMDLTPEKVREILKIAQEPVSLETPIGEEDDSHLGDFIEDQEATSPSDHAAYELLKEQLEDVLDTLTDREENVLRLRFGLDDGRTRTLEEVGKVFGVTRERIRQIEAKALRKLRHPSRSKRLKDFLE

Regarding “AAAACCAAAAGGCCAATGTCGGCCTTTTGGTTTTTTTGCGGTCTTTGCGGTGGGATTTTGCAGAATGCCGCAATAGGATAGCGGAACATTTTCGGTTCTGAATGTCCCTCAATTTGCTATTATATTTTTGTG (double strand) [Ppel]”, the binding result in data set [1] was “binds”.
Still for that read-out and setting: then “GTTACTGTCAAGTCGCAAAAGAATTGCTATGACCGAAAAAAAACCGCAAAGGAATAGATATAAGGTACCTTTTTGCAATTCATCTTTGTAAAATAAAGGTTATTCTGACATAATACAATTAATGTAAAAATTCGCACAATTTTATGTAAGGATGGGGGAATTTTC (double strand) [PrapI]”, with “binds”; and NCrapI (no DR), with above 9.6 µM.
On the same count and under the same terms, then NCyddk (no DR), with above 9.6 µM.
In the case of PDR ex1 (RE3 T1C), the binding signal (fold reduced affinity) in data set [1] came to 2.
As for PDR ex3 (RE3 G3A), in data set [1], the binding is above 9.6 µM.
The same measure, in the same setting: then PDR ex5 (RE3 G5A), with above 9.6 µM.
On the same count and under the same terms, as for PDR ex11 (RE4 G5A), the figure is above 9.6 µM; as for PDR ex12 (RE4 G6A), above 9.6 µM.
As to PIR-PDR core module fragment, the Kd in data set [1] (apparent Kd, Hill coefficient 1.4) came to 2400 nM.
With “TAGATTTCCTCCGACCTAATTTAATCCATTGTTTGTAAACATTTCATATCTAATTATATAACATAGACTCCTATTCTAACTACTTATTTTAAAGCAGTCTGGATTGTTTGGGTAATTCATAAAAAAATAAAAGAAAGAAGGAGGAATAGAGTTTTTCTTTTTTTTGTTTGCAATGTTACTGTCAAGTCGCAAAAGAATTGCTATGACCGAAAAAAAACCGCAAAGGAATAGATATAAGGTACCTTTTTGC (double strand) [Pyddk]”, the binding result in data set [1] is given as “binds”.
For “TTAATCCCCCCTTTTGAATTACCCGAGATATGTCATATTTTATCATATTTACAAGAAAAAGAAGAACGCAAAATAACCGCAATTGTCGAATTTCGGCTAACCGCAACAAAAAAGCACG (double strand) [PrapA]”, the binding result in data set [2], in data set [3] and in data set [1] was “binds” in each case.
